Test: label from the status in PepcDB records
For “MATRSCVSRGSAGSAAAGPVEAAIRAKLEQALSPEVLELRNESGGHAVPAGSETHFRVAVVSSRFEGMSPLQRHRLVHEALSEELAGPVHALAIQAKTPAQWRENPQLDISPPCLG”, the protein production was “not failed”. With “MATTLLSPTRFVHGLRFDNLRGDIFGGITAAIVALPLALAFGVASGAGPIAGLYGAICTGFFAALFGGTPAQISGPTGPMTVVMASTFANLTASNPENGWAMALTVVMFGGIFQVVLGLLGLGKYITFMPYTVISGFMSGIGVIIVILQIAPLLGHQTAPGVVPSLQAIPTYLNDVNFAALGLGLIALAIVFFSPPRLNRILPAPLIALVLGTIISMIFFGNVSLPRIGEIPSGLPSLHLPYLSWGSLQQMLLYSIMLAVLGSLDSLLTSLVADNISRSHHDSDRELVGQGIGNLVSGLCGGLPGAGATMRTVININSGGKTPIAGMIHALILLMIVLKAGQLTEPIPHAVLAGILIKVGIDIVDWSFLKRAHQLSTKGAGLMYLVLGLTVFVDLITAVAVGVFVANLFTVKNLTDLQLESIKSVTRADGEDWLLEEEQQILRAANGRIFMFHLSGPMSFGAAKSIARRLAIVENYDVLILDLATVPRLGVTALLAIETMLKDALAKQREVFLVGAKGQVQARLQRLPVLAQLSPHHRLESRLLALQMAAVCINVD” the protein production was “failed”. With “MATTPRVDAGGGSSMFAAVPLLALPVIVYNLVALTLTGGFKATDATARMNEALFTIHMTSRTDWAVSLGDLLMAASLVVLFVELLKSTTSRKIAIINHSLSMVLFILCLVEFLLAPAFATSTFFLITLMVLLDVLAGFIVTIVAARRDVDFGDN” the protein production was “failed”. For “MATTSAQTSPTEFGAGLPEAEDHSESAEPQSVEAEVIDERYADVWEKIQHARTIDVHDDAEVRKQRNFFDDKQKFMTQVTQRAEPFLYYIVSQLEARNMPLELALLPIVESGYNPLAQANGPAGLWQMIPATGRNFGLTINSAYDGRKDALASTDAVLDYLQHLYNTLGNDWINAVAGYNSGELVIKAAIDRNKAKGKPTDFWSLNIPARQVQTVPKWLAFIQIIREPSHYNLKVMPIANRPFLERLPAPNGVEISQIANAAGLTKAEFKTYNPGYRQSVIPSKGKYQIALPIENIGHYQENQHKLYAQKRYDSQTYIVKSGDSLGTIAAKFDLSVKELKQANNLTSDRLKIGQELTLLTPMAANDNEPEPVKTKANTDKSSTKANASSTKATSSKSTDKPVAKAKTYKVKSGDSLDKIARKSKVKLADLMKWNQLNAKSIIKPGQELKISELEHHHHHH”, the protein production was “failed”. With “MATVIAKPEAIAPEPKRRFTWPRGSRLGRLIVVLNVVALAIVIVGALILNELRNGLVNARIDSLSTQGELIANVIDQSATVGEPEPALDPYTASQIFQLLFIPRSQRARLFDAQGKALADSFVVADRVDWKVLPPARKPDQKDDDARTTPDRAAKAKRAQEALANEIAQAMRGRTVAGTRIAENGERVVSVSIPIQHVKAVLGVLTLEASDVDEIIAAQRKALLPFIAVAMLAILTSSVLLHRLIAVPVLRLARAADHVRLQGARAISLPDLSERKDELGDLSRSLEDMTHSLSERMDAIERFAADVAHEIKNPLTSIRSAIETLDLVTEPAARARLLAILQNDVNRLDRLVTDISNASRLDAELSREHPKALDLGRLLTEVVSLYENQWRPGDAPGSVRVSLSLADPSQPAIILGRETPIGQVFRNLIDNARSFSPADGEVRVTLSRTRGGLIAAVEDDGPGMPPENLETIFERFYTSRPKGRAFGGNSGLGLSIARQIVETHGGTVHAENRKDANGAVVGARFVVELPDARE” the protein production was “failed”. In the case of “MATVPSNPAFAPTLSTRGRLNGILFVALFAVAVTQLAAMPAIANLGISPLIVGIVAGALYGNALRDGVPASWAAGINFSARGLLRIAVAFFGLRVSLQEIAEVGWSGLIVSVLVVTSTLLIGLWCGMKVFKLDRDTALLTAAGSAICGAAAVLAFESALRSAPHKSAMAVGSVVLFGTLSMFLYPLAINAGWLHLDTMGAGLLLGGTVHEVAQVVGAASNVSPEATHVATIVKMTRVMLLVPVLLVVGLWISRSRKAGQAQGNGRIAMPWFAFGFLALVLVNSMQVLPGSVTQAVNSLDTFALTMAMTALGMETRFSQIRQAGPRALATGAILNLWLVGGGLAITLGVQKLLG”, the protein production is reported as “failed”. For “MATYSLANERLRALEDIEREIGAILQNAGTAILELSKEKTNERLLDRQAAAFTTSVQHVEAELSAQIRYLTQVATGQPHEGSSYSSRKDCQMALKRVDYARLKISDVARTCEQMLEN”, the protein production was “failed”. In the case of “MAVDWERRIDFDRLRTQRLTRALDALERSELGALLLFDMNNIRYTTATHIGNWARDKLFRMALLIRGQAPILWDIGSAARLHQMQAPWLPQESWRAGLSTWRGAIDDEVGVQTGNAKKVADLLREHGLANDPVGVDVVELPMLKALEAEGLTIVDGQGLMLDVRSIKTVDEIALLDHAAACVDAAYEELYKFLRVGVKENETVALVNKVLYELGSEEVEAVNAISGERCSPHPHVFSDRMIRPMDTAYFDIVHSYMGYRTCYYRTLNVAGATRAQRDAYKRAREYIDLAISEVKPGVLTSDIVKHFPAAQEFGFASEEEAFGLQYCHGVGLSVWEKPLMSRYHSFDHPVEIKEGMVFALETYWPTADGSSAARIEEEVEVTATGARVITRFPADELLVAGTRYWNGFDFPEIKAPIGRGVASGVAATNGAGAS”, the protein production is reported as “failed”. In the case of “MAVFVALGAFLMTLAGGWTAQRVTDRRHLVLGLAGGLMLGVVGMDLLPEALDAAGGKVFGVPAALLLFVAGFLLAHLVERLLAHRQAAHGGAESNGRAPEVGLTAAAAMVGHSAMDGVAIGAAFQVGGGMGLAVAVAVIAHDFADGFNTYTLTALYGNARRKAVIMLVADAVAPVLGAASTLAFTIPERLLGGYLALFGGALLYLAAAEILPEAHHEHPARSTLLCTVAGVGFIWLVVGLAG”, the protein production is reported as “failed”. With “MAVIADPETAQGFRLAGLEGYGASSAEEAQSLLETLVERGGYALVAVDEALLSDPERAVERLMRGRDLPVLLPIAGLKEAFQGHDVEGYMRELVRKTIGFDIKLLEHHHHHH” the protein production was “failed”. In the case of “MAVLNLFHIFATTVDSTAVEKNLLIMKFYNREKEIAELKRVQELAFGQNSRMIVVTGRRRIGKTSLIKQALKGTPTVYFFIGRKAESILVADFIKIVRETLSIFIPDGISNFTTLIQYLFEIGKTRSFNIVIDEFQEFYNIRPDVFSDMQNLWDEYRQETKINLVISGSVYSLMQKIFTDHGEPLFGRADNILCLRPFNTKVLKQIMEDFAPGYSNDDLLALYTLTGGIPKYVELFCDNQALSVDRIYDFVFSENSLFIDEGRNLLITEFGKNYGIYFSILLEIANGHYTQGEIESALGGISIGGHLSKLENVYNLITRERPIFAKPGTKKNVRYIIGDNFLNFWFKYIERNRSYIELQNFEDLRQLAKADYQTYSGRVLEKYFKQKLAEEGGFKEIGSWWETKSSANKERLNSFEIDIVALKSSGKKALIAEVKRMPENNYVHSTFMEKVEHLKHKEMAKYDIETRVLGLEDM”, the protein production is reported as “failed”. In the case of “MAVNPATGKSDFVMMSEQQELGMGARYNQEILKQFPRYNDEKLQAYVQRVGERVARSSHRSNLQYHFTVIDSPDINAFALPGGYIYIHRGLIAYLGSEAELAAVLGHEVGHVTARHSVRQQSQASAWNILGQAVAIGTGVGAAGDLANVLGTAFVRGYGRDMELEADGLGAQYLARAGYDPTAMIQVVRVLKNQEDFAREEAARNGQAVQAGGYHGLFDTHPDNDRRLQEVVGPARQLANGQQEVGREVFLRHLEGMPFGDSASAGVRRGQNFYHAELDFTLSYPAGWKILNQPSALLGYPADEQSFIGMKLVPHDSRLTPAEFLRKNAGQRLAQEESLKQAGLNGYTAVVPGNPARRVAVIYQGDRAYLFVGVVKVGSLETQDDRFLSVIRSFRPLRDKERALAQPRRLHLVQVKAGQTLEQLAAGGEGSLSDSVARLRLLNDLYPSGEPRPGDWLKVVRLEHHHHHH”, the protein production is reported as “failed”. In the case of “MAVNQDTLYVKGDRNVEVTKREVTLGDLVSMECSNRVILPHLKTMKVLKIPENGEKRYVISILKIIACIHEKYPGLEVQNLGETDLIVTYEMQKTPSK”, the protein production is reported as “not failed”. In the case of “MAVTDVFARRATLRRSLRLLADFRYEQRDPARFYRTLAADTAAMIGDLWLATHSEPPVGRTLLDVGGGPGYFATAFSDAGVGYIGVEPDPDEMHAAGPAFTGRPGMFVRASGMALPLADDSVDICLSSNVAEHVPRPWQLGTEMLRVTKPGGLVVLSYTVWLGPFGGHEMGLSHYLGGARAAARYVRKHGHPAKNNYGSSLFAVSAAEGLRWAAGTGAALAVFPRYHPRWAWWLTSVPVLREFLVSNLVLVLTP”, the protein production is reported as “failed”. For “MAVYMLNMGIVFVWSWFAKMYGREDHRLPTGYRPNAILTVVPLASLIIVAGLRYKVGTDYHTYMLLYELAGKYNSIWEIFGFGTGKSSTDPGFTALLWILNQISADPALMFAVVAAITYIYIVKTLYVYGRPFELSMFLFIGMFHYYASFNGIRQYMAAAILFWAVRYLIDGKLVRYMIVVLICSLFHSSALIMIPVYFIVRRKAWSPVLWCLMLVFLAGTFLYQKFLSVFLVVLENSQYGHYEEWLMKNTNGMNVIKIIVLLLPLALAFCFREQLRKRWPEVDYIVNLCLIGFLFGILATKDVIFARFNIYFGLYQLILVPYFVRIFEPKSNALLYVLILICYFLYSFMLMPFDSSVLPYRTIFER”, the protein production was “failed”. In the case of “MAWHAAEDRSLGFKETYLMQRFGAGVVIDDFELVEKLPSGGMASLWRATNPRYDFPLVLKIPFLDPGADVSVILGFEAEELILKRLSGPHVPRFAASGSLAQVPYIAMEFVVGKGLADIVGNAPLPMDEVARIGIEIATALAALHRQKVVHLDLKPENVVLANRGAVLLDFGLARHEELPDFLGAESSVPMGTAAYISPEQVLGERSDPASDLFALGCILFQLATGEEPFGRPATLAGMKRRLYHAPRSPRDINDAIPRWLEAIILKCMEVDRSQRYIEAAHILSDLRSPDQVVVAKRKPRNEGGWAAITSLFRKTDDRSLVGRASSTRTQAGPSIVLAAVDLANGTDALAGEVLNETARVLASREDSWLACVTVLRTEIIGDTPATDETGRSVYLKRLVALKDWAYPLHLPEDRISYHVLEAVSPADAILTYAEHNDVGHIVVGARASSAIRRHLGSVSTKVVAQALCSVSVVRLKAVEEQQRRPL”, the protein production is reported as “failed”. With “MAYGKAHLEAQLKRALAEEIQALEDPRLFLLTVEAVRLSKDGSVLSVYVEAFREEEGALRALSRAERRLVAALARRVRMRRLPRLEFLPWRASPA” the protein production was “not failed”. With “MAYIYGFRTLDRRVFYLALSRLIRASGRVSSFIFLPLIFIEIYSISFLITGLILGSSAIAMAFVQYYSGRWTDRIGRRFFLIVIPIPAAVFYFLMFTTVYLHMSVILLIIFWYGTIITNSLQYPAIEASVADVTSTSERLSGYTLIRIMANLGAAVGPLAGGFLAGINFSYIFLLASIFTVIELFILYYNVRETFLPARAIAEKIKLKIFKTDRFFFLFTLVGVFLGFTLRQNGPTLTVYAFDLKNLPLMDIGYLYSLNGIVVIALQMPILRLMSSRSNPVFWRGIGTIYYSIGFVILGIAPTFLYILLAMFIFTVGEDFMSPTTQTIITTLAPAEKKGSYIGSYNLLTSFGRFFGTIFGLYFLFIYQKTTFTFWIIIATSTGVIGLLYIFMSESFIKRTSKIATLPGKA” the protein production was “failed”. For “MAYTIGVDFGTLSGRAVLVHVQTGEELAAAVKEYRHAVIDTVLPKTGQKLPRDWALQHPADYLEVLETTIPSLLEQTGVDPKDIIGIGIDFTACTILPIDSSGQPLCMLPEYEEEPHSYVKLWKHHAAQKHADRLNQIAEEEGEAFLQRYGGKISSEWMIPKVMQIAEEAPHIYEAADRIIEAADWIVYQLCGSLKRSNCTAGYKAMWSEKAGYPSDDFFEKLNPSMKTITKDKLSGSIHSVGEKAGSLTEKMAKLTGLLPGTAVAVANVDAHVSVPAVGITEPGKMLMIMGTSTCHVLLGEEVHIVPGMCGVVDNGILPGYAGYEAGQSCVGDHFDWFVKTCVPPAYQEEAKEKNIGVHELLSEKANHQAPGESGLLALDWWNGNRSTLVDADLTGMLLGMTLLTKPEEIYRALVEATAYGTRMIIETFKESGVPIEELFAAGGIAEKNPFVMQIYADVTNMDIKISGSPQAPALGSAIFGALAAGKEKGGYDDIKKAAANMGKLKDITYTPNAENAAVYEKLYAEYKELVHYFGKENHVMKRLKTIKNLQFSSAAKK”, the protein production was “not failed”. For “MAYTTTVKLDGDTKTYTLSPTVKKYTLMDLGFVKGRSGAFSFERSLDPTSPYQAAFKLKMTVNADLTGFKMTTVTGNGVQRANIFKNDAHPEAVEQLRYILANFIERDILTTD”, the protein production was “not failed”.
